Experimental findings from article PMC7747622 are described below.

The subject of data set [1] is M-Ig of patient (monoclonal IgG kappa) (human (patient)). Description: SPR. Particulars: 2 mM Mg2+; aptamer immobilized; scrambled channel subtracted; SPR: PBS, 2 mM MgCl2 (SB), 6.25-200 nM IgG, 20 ul/min, 1:1 model; ELONA: SuperBlock or ChonBlock, 0.05% Tween 20, 2 mM MgCl2, washes PBS/2 mM MgCl2/0.05% Tween ….
Data set [2] relates to daratumumab (anti-CD38 therapeutic mAb, IgG kappa). Description: SPR. Particulars: SPR: PBS, 2 mM MgCl2 (SB), 6.25-200 nM IgG, 20 ul/min, 1:1 model; ELONA: SuperBlock or ChonBlock, 0.05% Tween 20, 2 mM MgCl2, washes PBS/2 mM MgCl2/0.05% Tween ….

The Kd is the constant that tells how readily two partners part at equilibrium. “GGAGGCTCTCGGGACGACGAGTGTGTCAGGTGGATGGACGGTTGGGTTGGGTAGGCAAGGATCGCTGCTGACCAGTTGAG [aptC]” gave a Kd in data set [1] of 1.85 nM.

With “GGAGGCTCTCGGGACGACGGCGCGGCGATTTGGGGTATGGGGAGGGGGTGGGTTGGGTCCATCGCTGCTGACCAGTTGAG [aptD]”, the Kd in data set [2] turned out to be 2.67 nM.
